Data on nine molecules can be found in article PMC11217399, “Amyloid formation and depolymerization of tumor suppressor p16^INK4a are regulated by a thiol-dependent redox mechanism” (Nature Communications, 2024).

Changes are numbered by the printed parent chain. Numbers in names are those of the source.

Data set [1] concerns the target endogenous p16 of Ishikawa cells (human (endogenous in Ishikawa cells)) (UniProt P42771). Nature of the data set: cross-linking; lysates of cancer cell lines without added oxidant, SDS lysis buffer, non-reducing SDS-PAGE and western blot for p16. On the technique in general: A western blot detects proteins with antibodies after separation by electrophoresis.
For data set [2], the target named is wild-type 6xHis-tagged p16 expressed in HEK293 cells (human) (UniProt P42771). Nature of the data set: cross-linking; HEK293 cells transiently expressing p16-His variants, 200 µM H2O2 in media for the times indicated, stopped with 10 µg/mL catalase and 50 mM NEM; non-reducing SDS-PAGE and western blot for p16.
Data set [3] concerns the molecule itself. Nature of the data set: cross-linking; intermolecular disulfide formed by oxidant (20 µM p16, 200 µM diamide, or H2O2 with or without 25 mM bicarbonate), 4 mM HEPES pH 7.4, room temperature; free cysteines blocked with 10 mM NEM; non-reducing SDS-PAGE.
Data set [4] concerns the molecule itself. As to the kind of experiment: Thioflavin-T fluorescence (amyloid formation); 20 µM p16 (series 5-60 µM), 10 µM ThT, oxidant (200 µM diamide, or H2O2 with or without bicarbonate) added at the start, 4 mM HEPES pH 7.4, 25 °C, quiescent.

“endogenous p16 of Ishikawa cells (from UniProt P42771 1-156) (natural protein)” had a stoichiometry N in data set [1] of 2.

In turn, “wild-type 6xHis-tagged p16 expressed in HEK293 cells (from UniProt P42771 1-156) (natural protein)” showed a stoichiometry N in data set [2] of 2.

B1: p16^INK4a, wild type (recombinant) (natural protein, human)
chain: GAMEPAAGSSMEPSADWLATAAARGRVEEVRALLEAGALPNAPNSYGRRPIQVMMMGSARVAELLLLHGAEPNCADPATLTRPVHDAAREGFLDTLVVLHRAGARLDVRDAWGRLPVDLAEELGHRDVARYLRAAAGGTRGSNHARIDAAEGPSDIPD
notes: p16INK4a, UniProt P42771; Self-association needs oxidation of Cys72 (diamide or H2O2): intermolecular disulfide dimer, then oligomers and amyloid fibrils; Constructs obtained from Genscript; also called wild-type p16; monomeric p16; source: E. coli BL21(DE3), purified (Ni-NTA, SEC, TEV cleavage, second Ni-NTA, desalting); not shown: His6, N-terminal, cleaved; protein A tag, N-terminal, cleaved
Turning to B1, the “stoichiometry N” value in data set [3] is 2.

B2: p16^INK4a D84N (recombinant) (natural protein, human)
chain: B1 chain with D86N
notes: p16INK4a, UniProt P42771; previously reported cancer mutation; source: E. coli BL21(DE3), purified (Ni-NTA, SEC, TEV cleavage, second Ni-NTA, desalting); not shown: His6, N-terminal, cleaved; protein A tag, N-terminal, cleaved
In the case of B2, the binding result in data set [4] was “binds”.

B3: p16^INK4a G122S (recombinant) (natural protein, human)
chain: B1 chain with G124S
notes: as for B2
As to B3, the binding result in data set [4] was “binds”.

B4: p16^INK4a A20S (recombinant) (natural protein, human)
chain: B1 chain with A22S
notes: as for B2
With B4, the binding result in data set [4] is given as “binds”.

B5: p16^INK4a A127S (recombinant) (natural protein, human)
chain: B1 chain with A129S
notes: as for B2
On to B5, for which the binding result in data set [4] is given as “binds”.

B6: p16^INK4a L37S (recombinant, stabilizing mutation) (natural protein, human)
chain: B1 chain with L39S
notes: p16INK4a, UniProt P42771; source: E. coli BL21(DE3), purified (Ni-NTA, SEC, TEV cleavage, second Ni-NTA, desalting); not shown: His6, N-terminal, cleaved; protein A tag, N-terminal, cleaved
As for B6, the binding result in data set [4] was “binds”.

B7: p16^INK4a V95A (recombinant) (natural protein, human)
chain: B1 chain with V97A
notes: as for B2
As to B7, in data set [4], the binding result is given as “binds”.

One may read the stoichiometry N as a count of units in the complex or per binding partner.
